# ± gives the standard deviation.
# Assay: protein stability index of a GFP-peptide fusion (GPS, HEK-293T) (PSI 1-6); higher = more stable
# Details: c terminus: a fixed tail appended
# 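Also: 24-mer peptide tiles fused after GFP, lentivirally expressed, FACS-sorted into six equal bins by GFP/DsRed ratio, decoded by Illumina sequencing, PSI is the read-weighted mean bin number.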
Sequence,protein stability index (treatment: DMSO),"protein stability index (treatment: MLN4924 1 uM, 8 h)"
RGELSARQMHLARFLRMLLRLADE [RAD51],2.2 ± 0.27,2.42 ± 0.4
EMKLQKNFLTQRENTIAGANHTHT [C10orf62],3.78 ± 0.44,3.65 ± 0.4
QQGEYSEAIPILRAALKLEPSNKT [FKBP8],4.12 ± 0.19,4.14 ± 0.11
IVPNSNGVITTTPTPPGQYFYPRG [JUNB],3.16 ± 0.27,3.35 ± 0.2
IVIWGVLTQKKPFADEKNILHIMV [RIPK4],3.25 ± 0.88,2.92 ± 0.67
CQRSRYRDSLTQPDEEPMHYGNIM [RSPH3],3.37 ± 0.39,3.45 ± 0.3
STLGGDIRESDPEQAPAPGEATAA [TBX6],5.65 ± 0.14,5.53 ± 0.38
CHHLPVIRQLATSGRFIVIIPRTV [SMG5],2.52 ± 0.6,2.56 ± 0.33
KYDPKTQEWSFLPSITRKRRYVAS [KLHL12],3.15 ± 0.4,2.93 ± 0.27
MERVNETVVREVIFLGFSSLARLQ [OR10K2],2.64 ± 0.65,2.4 ± 0.5
SDKETDIDDRYGDLDSRTDSDIPE [CDS1],5.54 ± 0.31,5.43 ± 0.27
DRLRINRFAWPKVLKISYKRNNFY [EPB41L3],1.81 ± 0.57,1.69 ± 0.4
KCGDLECEALINRVSAMRDYRGPD [MIA2],3.25 ± 0.63,3.21 ± 0.076
DGLDGISVGSYLDTLADDVPGHQT [LURAP1L],5.12 ± 0.27,4.86 ± 0.22
GLQILGHTLRASMRELGLLIFFLF [KCNA4],2.95 ± 0.6,2.96 ± 0.25
DQKVPYIFRDNQWVGFDDVESFKT [CHIT1],3.67 ± 0.18,3.53 ± 0.28
YRLLKCAPRGKNGFTPLHMAVDKD [FEM1A],2.84 ± 0.22,2.96 ± 0.14
ELIFSARVLDGKEAKAVGLISHVL [AUH],2.58 ± 0.92,2.18 ± 0.25
SSYYKFKLTREVLSLFVQKLGNLM [ZER1],2.83 ± 0.45,2.6 ± 0.36
SQSLWNRLSVLLNLLPAAGELQES [SMG5],2.75 ± 0.37,2.25 ± 0.18
HGSGGSGYPAAPPAVPFAPHFLQG [TBX6],2.94 ± 0.3,3.06 ± 0.31
MYEMLIGYPPFCSETPQETYRKVM [STK38L],2.2 ± 0.33,2.1 ± 0.3
CEITKRRRKACQACRFTKCLRVGM [ESRRA],2.26 ± 0.17,2.32 ± 0.22

Sequence,protein stability index (treatment: DMSO),"protein stability index (treatment: MLN4924 1 uM, 8 h)"
ALSEQKAQDLGELLATAEQEQLSL [LRRC45],5.07 ± 0.36,5.27 ± 0.1
KPGLRRSPIKKVRKSLALDIVDED [MYBL2],4.84 ± 0.5,4.92 ± 0.48
IEILPNVCYTACATLKGPDSHYGT [BTBD1],2.26 ± 0.19,2.31 ± 0.2
MLPGVLAGVSAEESWAGPQPLETL [SCNN1D],3.38 ± 0.34,3.53 ± 0.37
TILDIFRFALRFIRPDPRSRVTDP [FAF2],2.75 ± 0.48,2.75 ± 0.099
RMLIHKTEDVNTLDSEKRTPLHVA [ANKRD44],4.06 ± 0.22,4.15 ± 0.39
LRQQQHKQNKQVLGYCLLLMLAGM [DNAJC4],2.28 ± 0.48,2.41 ± 0.18
RELRKPEEPENGEPTAAATARRSK [PWWP2B],5.54 ± 0.16,5.51 ± 0.35
EQKVLSRLVESLSTQIRALTEQQE [RASAL3],2.65 ± 0.046,2.76 ± 0.19
CCQWLKPKMRSKEQILELLVLEQF [ZNF449],2.46 ± 0.51,2.46 ± 0.52
QTEELKYSIDQEFLKEYFPIEVVT [NLN],3.23 ± 0.37,3.49 ± 0.29
EGSRKSSRVKGSAPEIDPSSDGSN [KMT2E],5.36 ± 0.17,5.21 ± 0.18
GGFGGGDGGLLSGNEKITMQNLND [KRT15],4.76 ± 0.3,4.88 ± 0.27
ACGVILYILLVGYPPFWDEDQHRL [CAMK2D],2.6 ± 0.9,2.63 ± 0.51
SPFAQFACDNGLNVRGGKPDDITV [PPTC7],4.22 ± 0.23,4.14 ± 0.16
ADIFRIYAPEAPYTSPDKLKDIFM [PDS5B],2.06 ± 0.11,2.1 ± 0.21
QGEEVAQRSTVFKTTIPEEEEEEE [LMNB1],5.63 ± 0.19,5.64 ± 0.25
DFGLAARLEPLEHRRRTICGTPNY [PLK2],3.17 ± 0.28,3.13 ± 0.21
PARTVLVGSLSWLRKQLQPTHCKY,2.38 ± 0.43,2.19 ± 0.098
CMGAMSLFLPCLLCYPPAKGCLKL [SPRY1],2.8 ± 0.56,3.04 ± 0.83
LDSEKRTPLHVAAFLGDAEIIELL [ANKRD44],2.95 ± 0.12,3.03 ± 0.32
SVYVKLAGEREDLWAGSKGKEFGY [MIA2],2.52 ± 0.23,2.85 ± 0.15
HERGLKLHQTIYNQACKLLSDDYE [INTS4],3.18 ± 0.32,3.47 ± 0.47

Sequence,protein stability index (treatment: DMSO),"protein stability index (treatment: MLN4924 1 uM, 8 h)"
LRPPHTSRGTSQTPNASSPGNPTA [LPCAT4],4.76 ± 0.17,4.85 ± 0.21
ARGGAVSARYVLPDEAARARLLQE [DUSP5],4.63 ± 0.16,4.54 ± 0.34
KYPSHSFIGEESVAAGEKSILTDN [IMPA1],4.66 ± 0.24,4.75 ± 0.1
DYCKGGYHPVKIGDLFNGRYHVIR [SRPK2],1.99 ± 0.32,2.23 ± 0.25
AAPDCTPSLEAGNPAPAAPCPLGE [MYCL],5.42 ± 0.25,5.49 ± 0.26
LFAPTLIYRDSYPRNPTVRWGYVA [SOAT1],2.44 ± 0.55,2.06 ± 0.35
VLMAVSVHSERKLLPLVTLCDGNP [SCNN1D],2.4 ± 0.38,2.32 ± 0.47
RGRAVLREAGFHQYEVSNFARNGA [RSAD1],3.36 ± 0.54,3.37 ± 0.48
TLDQTTSEEAPGGTELIQTPLASS [HDAC6],5.52 ± 0.22,5.49 ± 0.26
ENLIRERSQQQEPLLCPSYQSYFK [KRT33B],3.39 ± 0.26,3.59 ± 0.59
FAVLHWKPPQNPVDTYDVQVTAPG [TNXB],2.76 ± 0.25,2.68 ± 0.46
GLLQGTSAETSGGLLICLPREQAA [SEPHS2],3.07 ± 0.16,3.29 ± 0.18
TRIHILPSMNPDGYEVAAAQGPNK [CPN1],4.13 ± 0.25,4.06 ± 0.27
FPNIASATKFKQLYRSRMNSLEMT [HMOX1],2.37 ± 0.16,2.62 ± 0.23
MDVPGPVSRRAAAAAATVLLRTAR [SLC19A2],3.29 ± 0.23,3.42 ± 0.089
RHMREENLRLQRKLQREMERREAL [CCDC6],3.96 ± 0.36,4.39 ± 0.15
FLLRNSQRTVGQLMELCRLYHRAD [EDARADD],2.12 ± 0.24,2.23 ± 0.25
RSDVEKGGKIIMPPSALDQLSRLN [UFD1],3.55 ± 0.41,3.97 ± 0.28
SWSALWNITDETPDNCEMFLNFNG [ZER1],2.61 ± 0.25,2.79 ± 0.23
GRAQDDVSEWASKAKANGITMYAV [MATN2],2.56 ± 0.36,2.62 ± 0.39
EVKIRDWHLKQSPASPERDYSPYY [KRT13],3.34 ± 0.38,3.35 ± 0.47
ESRACLERIQELEDLLAKEKDNSR [LMNB1],5.04 ± 0.46,5.15 ± 0.27
ASSGGAGAAVGTGSSYPTTTISYL [JUNB],2.8 ± 0.34,2.79 ± 0.39

Sequence,protein stability index (treatment: DMSO),"protein stability index (treatment: MLN4924 1 uM, 8 h)"
GLRRLGLHRTEGELQKIVQAGDKD [SLC25A25],4.45 ± 0.12,4.82 ± 0.52
FFSEIISSVSDVKFSHSGRYMLTR [PPP2R2C],2.08 ± 0.48,2.06 ± 0.22
WPLRGKREAMLEMLLQHQICKEVQ [SPAG8],2.17 ± 0.4,2.11 ± 0.24
LPYPKDVYSVSVDQKERCIIVRTT [DPCD],2.21 ± 0.22,2.18 ± 0.22
LNQIVTEPDANFPQFLHEGLSKPV [FAM104B],3.86 ± 0.039,3.7 ± 0.42
PLDSKENLENPMRRIHSLPQKLLG [CDC25A],3.29 ± 0.32,3.79 ± 0.16
GVSPADMYRWKLSSHEPCSATCTT [ADAMTSL2],2.98 ± 0.33,3.37 ± 0.63
SVSRFFADSGADPKGEPGSKQSPP [FBF1],5.09 ± 0.2,5.14 ± 0.14
MHKHNETSQKIAARAFAQRYLADL [RSPH3],2.63 ± 0.094,2.84 ± 0.22
NGISPIIIDNTNLHAWEMKPYAVM [N4BP2L1],2.46 ± 0.37,2.01 ± 0.25
GAAVVRPPGHHAEQDAACGFCFFN [HDAC6],3.14 ± 0.36,3.26 ± 0.25
DILVLLGASLYAISNVCEEYIVKK [SLC35F2],3.41 ± 0.61,2.89 ± 0.47
DLMETTQYMNEGELRVLADTYDSV [HDAC6],2.69 ± 0.52,3.58 ± 0.51
LGCALLAAHAVVLCALPVHVAVEH [SOAT2],3.43 ± 0.35,3.09 ± 0.51
YRQDDPSYRSFHSGGYGQDALGMD [CTNNB1],3.89 ± 0.35,4.03 ± 0.14
LWSLFVPFTVYQVRWLRPVHRQLG [AUP1],2.82 ± 0.59,2.59 ± 0.69
EKVNEGKYRSYEEFKADAQLLLHN [ZMYND11],4.1 ± 0.13,3.79 ± 0.28
QMPTEIEFPESRKPISTKSQFLKH [ZNF649],4.16 ± 0.19,4.26 ± 0.19
IEANFPRRVLPCIPSEEWPNPPTL [FAF2],2.9 ± 0.28,3.05 ± 0.22
LLEKVPCTLEQDHFKKQTIYRFLK [FEM1C],2.38 ± 0.83,2.31 ± 0.23
ILGVIGLFTIPLLYRQHQAQIDQY [RTN2],3.28 ± 0.71,3.1 ± 0.84
